# Laboratory results taken from patent US20230002503A1 (BIOTHEUS, published 2023).
# Experiments:
# [1] = biological target: T1, human CAIX on CHO cells (CHO-hCAIX) (human, UniProt Q16790 38-459); test: flow cytometry on CHO-hCAIX cells, anti-human IgG-Fc PE
# Experimental: (§1) CHO cells overexpressing human CAIX (CHO-hCAIX cells) were generated by the pCHO1.0 vector (purchased from Invitrogen) transfected with CAIX cDNA. The cell density of the proliferated CHO-CAIX cells were adjusted to 2×10⁶ cells/ml, added at 100 μL/well to a 96-well flow cytometry plate, and centrifuged for later use. The purified CAIX antibody was diluted with PBS, and 3-fold dilution was started from 400 nM for a total of 12 points, and 100 μL/well of the above diluted sample was added to the above-mentioned 96-well flow cytometry plate with the cells, incubated at 4° C. for 30 min, and washed with PBS for two times. Goat F(ah′)2 Anti-Human IgG-Fc(PE) (purchased from Abeam, ab98596) diluted 100 times with PBS was added at 100 μL/well, incubated at 4° C. for 30 min, and washed twice with PBS. PBS was added at 100 μl/well to resuspend the cells, the cells were detected on a CytoFlex (Bechman) flow cytometer, and the corresponding MFI was calculated.
# [2] = biological target: T2, human CAIX antigen (purchased from AcroBiosystems) (human, UniProt Q16790 38-414); test: BLI (ForteBio), antibody on AHQ sensor, 100 nM antigen, 1:1 model
# [3] = biological target: T1, human CAIX on CHO cells (CHO-hCAIX); test: flow cytometry on CHO-hCAIX cells
# Experimental: as §1
# The purified humanized antibodies were subjected to the detection of binding capacity of the purified humanized nanobody to CHO-hCAIX at cell level according to the method described in Example 4, and the results were shown in FIG. 2 and Table 5.
# [4] = biological target: T3, murine CAIX on CHO cells (CHO-mCAIX) (mouse, UniProt Q8VHB5 32-437); test: flow cytometry on CHO-mCAIX cells
# T3 construct: whole, on cells; also called mouse CAIX
# Experimental: as §1
# In order to identify the affinity of the antibody to murine CAIX (mCAIX) at cell level, the cell stain was constructed according to the method described in Example 4, the affinity of the purified humanized antibody to CHO-mCAIX at cell level was identified, and the results were shown in FIG. 4 and Table 7.
# [5] = biological target: T4, monkey CAIX on CHO cells (CHO-cyCAIX) (monkey); test: flow cytometry on CHO-cyCAIX cells
# T4 construct: whole, on cells
# Experimental: as §1
# In order to identify the affinity of the antibody to monkey CAIX (cyCAIX) at cell level, the cell strain was constructed according to the method described in Example 4, the affinity of the purified humanized antibody to CHO-cyCAIX was identified at cell level, and the results were shown in FIG. 3 and Table 6.
# [6] = biological target: T2, human CAIX antigen (purchased from …); test: BLI (ForteBio), method of Example 3
# [7] = biological target: T2, human CAIX antigen (purchased from …); test: BLI (ForteBio), method of Example 3; second run, alongside the humanized antibodies (Table 4)
# T3 sequence (Q8VHB5 32-437): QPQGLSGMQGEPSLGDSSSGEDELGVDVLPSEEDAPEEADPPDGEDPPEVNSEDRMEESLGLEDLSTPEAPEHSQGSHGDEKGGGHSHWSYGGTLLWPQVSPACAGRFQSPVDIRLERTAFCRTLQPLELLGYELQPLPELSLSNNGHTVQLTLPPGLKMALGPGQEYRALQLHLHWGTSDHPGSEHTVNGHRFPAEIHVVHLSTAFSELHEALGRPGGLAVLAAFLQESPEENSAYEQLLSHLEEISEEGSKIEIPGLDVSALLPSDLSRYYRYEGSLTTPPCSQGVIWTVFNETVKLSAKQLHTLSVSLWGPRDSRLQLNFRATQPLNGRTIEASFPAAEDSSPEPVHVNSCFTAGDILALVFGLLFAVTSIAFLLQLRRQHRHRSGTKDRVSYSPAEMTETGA
Binder,EC50 [1] [nM],Kd [2] [nM],koff [2] [s⁻¹],kon [2] [M⁻¹ s⁻¹],EC50 [3] [nM],EC50 [4] [nM],EC50 [5] [nM],koff [6] [s⁻¹],kon [6] [M⁻¹ s⁻¹],Kd [7] [nM],Kd [6] [nM]
"H-YE-24 (Fc fusion, also called CAIX nanobody H-YE-24; not shown: human IgG1 Fc segment) QVQLQESGGGLVQPGGSLRLSCAASGNSVNIFRFAAMAWYRQAPGKQRELVAVITSAGGTKYSDSVKGRFTISRDNAKNTVLLQMNSLKPEDTAVYYCNADYLQDYWGQGTQVTVSS",3.06,1.34,0.000798,594000,–,–,–,–,–,–,–
"Hu-H-YE-05-D4 (Fc fusion, also called humanized recombinant antibody from H-YE-05; not shown: human IgG1 Fc segment) EVQLLESGGGLVQPGGSRRLSCAASGNSVNIFSFAAVAWYRQAPGKQRELVAVITTTGGTKYSDSVKGRFTISRDSSKNTVYLQMNSLRAEDTAVYYCNADYLQDYWGQGTQVTVSS",–,–,–,–,5.07,58.8,13.5,0.00142,181000,–,7.84
"H-YE-03 (Fc fusion, also called CAIX nanobody H-YE-03; not shown: human IgG1 Fc segment) QVQLQESGGGLVQPGGSLRLSCTASTSSFNFQTMGWYRQAPGKQRELVATITSRAITNYADSVKGRFTISRDNAAKTVSLQMNSLKPEDTAVYYCNAAWIGDYWGQGTQVTVSA",7.34,1.14,0.00141,1.24e+06,–,–,–,–,–,–,–
"H-YE-33 (Fc fusion, also called CAIX nanobody H-YE-33; not shown: human IgG1 Fc segment) QVQLQESGGGLVQPGGSLRLSCAASGGDFRFYDMGWYRQAPGKQRELVAGITTRGYTNYADVVKGRFTISRDNAKNTVYLEMNSLKPEDTAVYSCSASHFLGGRIDYWGQGTQVTVSS",2.78,2.04,0.00139,682000,–,–,–,–,–,–,–
"H-YE-37 (Fc fusion, also called CAIX nanobody H-YE-37; not shown: human IgG1 Fc segment) QVQLQESGGGLMHDGDSLRLSCAASGRTFSTYAMGWFRQAPGKEREFVAAISWSGGSTYYADSVKGRFTISRDNAKNTVYLQMNSLKPEDTAVYYCAAEGIYNSGSSYHDANGYDYWGQGTQVTVSS",6.07,2.39,0.00249,1.04e+06,–,–,–,–,–,–,–
"H-YE-40 (Fc fusion, also called CAIX nanobody H-YE-40; not shown: human IgG1 Fc segment) QVQLQESGGGLVQAGGSLRLSCAASGRTFSSYAMGWFRQAPGKEREFVATISWNGGSTYYADSVKGRFTISRDNAKNTVYLQMNSLKPEDTAVYYCAAEHDLGELAGTGYDYWGQGTQVTVSS",4.74,2.53,0.00125,495000,–,–,–,–,–,–,–
"Hu-H-YE-32-D6 (Fc fusion, also called humanized antibody from H-YE-32; not shown: human IgG1 Fc segment) QVQLVESGGGLVQPGGSLRLSCSASGGARNIFSFAAMAWYRQAPGKGLELVAVITSAGGTQYSSSVKGRFTISRDNSKKTLYLQMNSLRAEDTAVYYCNADYYQDYWGQGTQVTVSS",–,–,–,–,9.61,59.6,8.39,0.0001,260000,–,0.384
"Hu-H-YE-32-D5 (Fc fusion, T0013 prints the label as Hu-H-YB-32-D5; also called Hu-H-YB-32-D5; humanized antibody from H-YE-32; not shown: human IgG1 Fc segment) QVQLVESGGGLVQPGGSLRLSCSASGGARNIFSFAAMHWYRQAPGKGLELVAVITSAGGTYYADSVKGRFTISRDNSKKTLYLQMNSLRAEDTAVYYCNADYYQDYWGQGTQVTVSS",–,–,–,–,2.33,552,22.7,0.00177,216000,–,8.2
"Hu-H-YE-05-D3 (Fc fusion, also called humanized recombinant antibody from H-YE-05; not shown: human IgG1 Fc segment) EVQLLESGGGLVQPGGSLRLSCAASGNSVNIFSFAAMSWYRQAPGKGLELVAVITTTGGTKYSDSVKGRFTISRDNSKNTLYLQMNSLRAEDTAVYYCNADYLQDYWGQGTQVTVSS",–,–,–,–,4.46,20.8,14.3,0.00185,179000,–,10.3
"Hu-H-YE-23-D2 (Fc fusion, T0013 prints the label as Hu-H-YB-23-D2; also called Hu-H-YB-23-D2; humanized recombinant antibody from H-YE-23; not shown: human IgG1 Fc segment) QVQLVESGGGLVQPGGSLRLSCSASGNSANIFSFASVAWYRQAPGKGLELVSVITSAGGTKYSDSVKGRFTISRDNSKNTLYLQMNSLRAEDTAVYYCNVDYLQDYWGQGTLVTVSS",–,–,–,–,8.71,43.7,25.1,0.00105,158000,–,6.68

# The next lines start with the values.
EC50 [1] [nM],Kd [2] [nM],koff [2] [s⁻¹],kon [2] [M⁻¹ s⁻¹],EC50 [3] [nM],EC50 [4] [nM],EC50 [5] [nM],koff [6] [s⁻¹],kon [6] [M⁻¹ s⁻¹],Kd [7] [nM],Kd [6] [nM],Binder
2.44,1.21,0.00106,875000,–,–,–,–,–,–,–,"H-YE-25 (Fc fusion, also called CAIX nanobody H-YE-25; not shown: human IgG1 Fc segment) QVQLQESGGGLVQPGGSLRLSCAASGNSVNIFRFAAMAWYRQAPGKQRELVAVITTTGGTKYSDSVKGRFTISRDSAKNTVLLQMNSLKPEDTAVYYCNADYLQDYWGQGTQVTVSS"
8.79,0.557,0.000662,1.19e+06,4.55,31.7,7.32,0.00159,155000,10.3,–,"H-YE-05 (Fc fusion, also called CAIX nanobody H-YE-05; not shown: human IgG1 Fc segment) QVQLQESGGGLVQPGGSRRLSCAASGNSVNIFSFAAVAWYRQAPGKQRELVAVITTTGGTKYSDSVKGRFTISRDSAKNTVLLQMNSLKPEDTAVYYCNADYLQDYWGQGTQVTVSS"
4.46,0.109,0.000109,999000,–,–,–,–,–,–,–,"H-YE-26 (Fc fusion, also called CAIX nanobody H-YE-26; not shown: human IgG1 Fc segment) QVQLQESGGGLVQAGGSLRLSCAASGNSVNIFRFATVAWYRQAPGEQRELVAVITSAGGTKYSDSVKGRFTISRDNAKNTVLLQMNSLKPEDTAVYYCNADFLQDYWGQGTQVTVSS"
3.55,0.218,0.0002,917000,3.11,38.1,6.55,0.000556,136000,–,4.08,"H-YE-23 (Fc fusion, also called CAIX nanobody H-YE-23; WYE-23; not shown: human IgG1 Fc segment) QVQLQESGGGLVQPGGSLRLSCAASGNSANIFSFASVAWYRQAPGKQRELVAVITSAGGTKYSDSVKGRFTISRDNAKNTILLQMNSLKPEDTAVYYCNVDYLQDYWGQGTQVTVSS"
6.14,0.498,0.000492,988000,14.6,34.1,9.42,0.0001,271000,–,0.369,"H-YE-32 (Fc fusion, also called CAIX nanobody H-YE-32; not shown: human IgG1 Fc segment) QVQLQESGGGLVQPGGSLRLSCAASGGARNIFSFAAMAWYRQAPGKQRELVAVITSAGGTQYSSSVKGRFTISRDNAKKTVLLQMNSLKPEDTAVYYCNADYYQDYWGQGTQVTVSS"
7.78,0.282,0.000259,919000,–,–,–,–,–,–,–,"H-YE-04 (Fc fusion, also called CAIX nanobody H-YE-04; not shown: human IgG1 Fc segment) QVQLQESGGGLVQPGGSLRLSCTASTSSFNFQTLGWYRQAPGNQRELVATITSRAITNYADSVKGRFTISRDNAAKTVSLQMNSLKPEDTAVYYCNAAWIGDYWGQGTQVTVSS"
–,0.529,0.000513,969000,–,–,–,–,–,–,–,"H-YE-38 (Fc fusion, also called CAIX nanobody H-YE-38; not shown: human IgG1 Fc segment) QVQLQESGGGLMQPGGSLTLSCAVPRFTLDYYAIGWFRQAPGKEREFVAAISWSGGTTQYSDSAKGRFTISRDNSKNTGYLQMNSLKPEDTATYYCAAGRQLEWRTYDYWGQGTQVTVSS"
